Measured values: patent publication US20080274095A1, “Biocides” (priority 2004, published 2008)

Key:
Caco-2 Host Cells = experiment: Host cell toxicity assay by LDH release; format: cell-based, human
Method: Host cell toxicity assay was performed by measuring the release of lactate dehydrogenase (LDH) in the medium using a CYTOTOX 96 Non-Radioactive Cytotoxicity Assay kit (Promega, Madison, Wis.). Toxicity was therefore classified as non toxic 0-5% LDH release and mild toxicity 5-10% LDH release (ref).

[1] = Tobias et al. 1995; read-out: dissociation constant KD for LPS binding; cited from earlier work

| Molecule | % LDH release (Caco-2 Host Cells; 10 μg/ml) | % LDH release (Caco-2 Host Cells; 100 μg/ml) | Kd [1] |
| --- | --- | --- | --- |
| Lactoferrin (protein, UniProt P02788 20-710, looked up, Sigma) Lactotransferrin: GRRRSVQWCAVSQPEATKCFQWQRNMRKVRGPPVSCIKRDSPIQCIQAIAENRADAVTLDGGFIYEAGLAPYKLRPVAAEVYGTERQPRTHYYAVAVVKKGGSFQLNELQGLKSCHTGLRRTAGWNVPIGTLRPFLNWTGPPEPIEAAVARFFSASCVPGADKGQFPNLCRLCAGTGENKCAFSSQEPYFSYSGAFKCLRDGAGDVAFIRESTVFEDLSDEAERDEYELLCPDNTRKPVDKFKDCHLARVPSHAVVARSVNGKEDAIWNLLRQAQEKFGKDKSPKFQLFGSPSGQKDLLFKDSAIGFSRVPPRIDSGLYLGSGYFTAIQNLRKSEEEVAARRARVVWCAVGEQELRKCNQWSGLSEGSVTCSSASTTEDCIALVLKGEADAMSLDGGYVYTAGKCGLVPVLAENYKSQQSSDPDPNCVDRPVEGYLAVAVVRRSDTSLTWNSVKGKKSCHTAVDRTAGWNIPMGLLFNQTGSCKFDEYFSQSCAPGSDPRSNLCALCIGDEQGENKCVPNSNERYYGYTGAFRCLAENAGDVAFVKDVTVLQNTDGNNNEAWAKDLKLADFALLCLDGKRKPVTEARSCHLAMAPNHAVVSRMDKVERLKQVLLHQQAKFGRNGSDCPDKFCLFQSETKNLLFNDNTECLARLHGKTTYEKYLGPQYVAGITNLKKCSTSPLLEACEFLRK | 5.9 ± 1.2 % | 5.8 ± 3.1% | – |
| LPS-binding protein (protein, UniProt P18428 26-481, looked up) Lipopolysaccharide-binding …: ANPGLVARITDKGLQYAAQEGLLALQSELLRITLPDFTGDLRIPHVGRGRYEFHSLNIHSCELLHSALRPVPGQGLSLSISDSSIRVQGRWKVRKSFFKLQGSFDVSVKGISISVNLLLGSESSGRPTVTASSCSSDIADVEVDMSGDLGWLLNLFHNQIESKFQKVLESRICEMIQKSVSSDLQPYLQTLPVTTEIDSFADIDYSLVEAPRATAQMLEVMFKGEIFHRNHRSPVTLLAAVMSLPEEHNKMVYFAISDYVFNTASLVYHEEGYLNFSITDDMIPPDSNIRLTTKSFRPFVPRLARLYPNMNLELQGSVPSAPLLNFSPGNLSVDPYMEIDAFVLLPSSSKEPVFRLSVATNVSATLTFNTSKITGFLKPGKVKVELKESKVGLFNAELLEALLNYYILNTFYPKFNDKLAEGFPLPLLKRVQLYDLGLQIHKDFLFLGANVQYMRV | – | – | 3.5 nM |
